Experimental data reported in US20240360227A1.

Key:
[1] = molecular target: Recombinant human his-tagged IGF R extracellular domain protein (human) (UniProt P08069); assay: SPR, Ab captured via anti-huIgG Fc, pH 7.4
[2] = molecular target: Recombinant human his-tagged IGF R extracellular domain protein (human) (UniProt P08069); assay: SPR, Ab captured via anti-huIgG Fc, dissociation at pH 6

| Kd [1] | koff [1] | kon [1] | Kd [2] | koff [2] | kon [2] | Binder |
| --- | --- | --- | --- | --- | --- | --- |
| 0.456 nM | 4.85e-05 s⁻¹ | 106000 M⁻¹ s⁻¹ | 1.05 nM | 9.16e-05 s⁻¹ | 86800 M⁻¹ s⁻¹ | VRDN-02100 (antibody, human IgG1, kappa, V domains shown) VH: QVQLQESGPGLVKPSETLSLTCTVSGYSITGGYLWNWIRQPPGKGLEWIGYISYDGTNNYKPSLKDRVTISRDTSKNQFSLKLSSVTAADTAVYYCARYGRVFFDYWGQGTLVTVSS VL: DIVMTQSPLSLPVTPGEPASISCRSSQSIVHSNGNTYLQWYLQKPGQSPQLLIYKVSNRLYGVPDRFSGSGSGTDFTLKISRVEAEDVGVYYCFQGSHVPWTFGQGTKVEIKR |
| 8.23 nM | 0.000775 s⁻¹ | 94100 M⁻¹ s⁻¹ |  |  |  | VRDN-02022 (antibody, V domains shown) VH: QVQLQESGPGLVKPSETLSLTCTVSGYSITGGYLWNWIRQPPGKGLEWIGYISYDGTNNYKPSLKDRVTISRDTSKNQFSLKLSSVTAADTAVYYCARYHRVFFDYWGQGTLVTVSS VL: DIVMTQSPLSLPVTPGEPASISCRSSQSIVHSNGNTYLQWYLQKPGQSPQLLIYKVSNRLYGVPDRFSGSGSGTDFTLKISRVEAEDVGVYYCFQGSHVPWTFGQGTKVEIK |
| 4.4 nM | 0.00187 s⁻¹ | 426000 M⁻¹ s⁻¹ | 1.23 nM | 8.97e-05 s⁻¹ | 72700 M⁻¹ s⁻¹ | VRDN-02023 (antibody, V domains shown) VH: QVQLQESGPGLVKPSETLSLTCTVSGYSITGGYLWNWIRQPPGKGLEWIGYISYDGTNNYKPSLKDRVTISRDTSKNQFSLKLSSVTAADTAVYYCARYGHVFFDYWGQGTLVTVSS VL: DIVMTQSPLSLPVTPGEPASISCRSSQSIVHSNGNTYLQWYLQKPGQSPQLLIYKVSNRLYGVPDRFSGSGSGTDFTLKISRVEAEDVGVYYCFQGSHVPWTFGQGTKVEIK |
| 0.449 nM | 5.06e-05 s⁻¹ | 113000 M⁻¹ s⁻¹ | 0.793 nM | 7.99e-05 s⁻¹ | 101000 M⁻¹ s⁻¹ | VRDN-02024 (antibody, V domains shown) VH: QVQLQESGPGLVKPSETLSLTCTVSGYSITGGYLWNWIRQPPGKGLEWIGYISYDGTNNYKPSLKDRVTISRDTSKNQFSLKLSSVTAADTAVYYCARYGRHFFDYWGQGTLVTVSS VL: DIVMTQSPLSLPVTPGEPASISCRSSQSIVHSNGNTYLQWYLQKPGQSPQLLIYKVSNRLYGVPDRFSGSGSGTDFTLKISRVEAEDVGVYYCFQGSHVPWTFGQGTKVEIK |
| 2.08 nM | 0.000141 s⁻¹ | 68000 M⁻¹ s⁻¹ | 1.51 nM | 9.5e-05 s⁻¹ | 63000 M⁻¹ s⁻¹ | VRDN-02025 (antibody, V domains shown) VH: QVQLQESGPGLVKPSETLSLTCTVSGYSITGGYLWNWIRQPPGKGLEWIGYISYDGTNNYKPSLKDRVTISRDTSKNQFSLKLSSVTAADTAVYYCARYGRVHFDYWGQGTLVTVSS VL: DIVMTQSPLSLPVTPGEPASISCRSSQSIVHSNGNTYLQWYLQKPGQSPQLLIYKVSNRLYGVPDRFSGSGSGTDFTLKISRVEAEDVGVYYCFQGSHVPWTFGQGTKVEIK |
| 2.4 nM | 9.99e-05 s⁻¹ | 41500 M⁻¹ s⁻¹ | 1.64 nM | 6.71e-05 s⁻¹ | 40800 M⁻¹ s⁻¹ | VRDN-02026 (antibody, V domains shown) VH: QVQLQESGPGLVKPSETLSLTCTVSGYSITGGYLWNWIRQPPGKGLEWIGYISYDGTNNYKPSLKDRVTISRDTSKNQFSLKLSSVTAADTAVYYCARYGRVFHDYWGQGTLVTVSS VL: DIVMTQSPLSLPVTPGEPASISCRSSQSIVHSNGNTYLQWYLQKPGQSPQLLIYKVSNRLYGVPDRFSGSGSGTDFTLKISRVEAEDVGVYYCFQGSHVPWTFGQGTKVEIK |
| 6.73 nM | 0.000957 s⁻¹ | 142000 M⁻¹ s⁻¹ | 2.85 nM | 0.000121 s⁻¹ | 42600 M⁻¹ s⁻¹ | VRDN-02027 (antibody, V domains shown) VH: QVQLQESGPGLVKPSETLSLTCTVSGYSITGGYLWNWIRQPPGKGLEWIGYISYDGTNNYKPSLKDRVTISRDTSKNQFSLKLSSVTAADTAVYYCARYGRVFFHYWGQGTLVTVSS VL: DIVMTQSPLSLPVTPGEPASISCRSSQSIVHSNGNTYLQWYLQKPGQSPQLLIYKVSNRLYGVPDRFSGSGSGTDFTLKISRVEAEDVGVYYCFQGSHVPWTFGQGTKVEIK |
| 0.525 nM | 5.4e-05 s⁻¹ | 103000 M⁻¹ s⁻¹ | 1.11 nM | 0.000107 s⁻¹ | 97000 M⁻¹ s⁻¹ | VRDN-02028 (antibody, V domains shown) VH: QVQLQESGPGLVKPSETLSLTCTVSGYSITGGYLWNWIRQPPGKGLEWIGYISYDGTNNYKPSLKDRVTISRDTSKNQFSLKLSSVTAADTAVYYCARYGRVFFDHWGQGTLVTVSS VL: DIVMTQSPLSLPVTPGEPASISCRSSQSIVHSNGNTYLQWYLQKPGQSPQLLIYKVSNRLYGVPDRFSGSGSGTDFTLKISRVEAEDVGVYYCFQGSHVPWTFGQGTKVEIK |
|  |  |  | 0.228 nM | 4.43e-05 s⁻¹ | 194000 M⁻¹ s⁻¹ | VRDN-02059 (antibody, V domains shown) VH: QVQLQESGPGLVKPSETLSLTCTVSGYSITGGYLWNWIRQPPGKGLEWIGYIHYDGTNNYKPSLKDRVTISRDTSKNQFSLKLSSVTAADTAVYYCARYGRVFFDYWGQGTLVTVSS VL: DIVMTQSPLSLPVTPGEPASISCRSHQSIVHSNGNTYLQWYLQKPGQSPQLLIYKVSNRLYGVPDRFSGSGSGTDFTLKISRVEAEDVGVYYCFQGSHVPWTFGQGTKVEIK |

Continued, binder first:

| Binder | Kd [1] | koff [1] | kon [1] | Kd [2] | koff [2] | kon [2] |
| --- | --- | --- | --- | --- | --- | --- |
| VRDN-02001 (antibody, V domains shown) VH: QVQLQESGPGLVKPSETLSLTCTVSHYSITGGYLWNWIRQPPGKGLEWIGYISYDGTNNYKPSLKDRVTISRDTSKNQFSLKLSSVTAADTAVYYCARYGRVFFDYWGQGTLVTVSS VL: DIVMTQSPLSLPVTPGEPASISCRSSQSIVHSNGNTYLQWYLQKPGQSPQLLIYKVSNRLYGVPDRFSGSGSGTDFTLKISRVEAEDVGVYYCFQGSHVPWTFGQGTKVEIK | 0.495 nM | 5.1e-05 s⁻¹ | 103000 M⁻¹ s⁻¹ | 1.2 nM | 0.000115 s⁻¹ | 96000 M⁻¹ s⁻¹ |
| VRDN-02016 (antibody, V domains shown) VH: QVQLQESGPGLVKPSETLSLTCTVSGYSITGGYLWNWIRQPPGKGLEWIGYISYHGTNNYKPSLKDRVTISRDTSKNQFSLKLSSVTAADTAVYYCARYGRVFFDYWGQGTLVTVSS VL: DIVMTQSPLSLPVTPGEPASISCRSSQSIVHSNGNTYLQWYLQKPGQSPQLLIYKVSNRLYGVPDRFSGSGSGTDFTLKISRVEAEDVGVYYCFQGSHVPWTFGQGTKVEIK | 0.346 nM | 3.39e-05 s⁻¹ | 98000 M⁻¹ s⁻¹ | 1.31 nM | 0.000111 s⁻¹ | 84300 M⁻¹ s⁻¹ |
| VRDN-02017 (antibody, V domains shown) VH: QVQLQESGPGLVKPSETLSLTCTVSGYSITGGYLWNWIRQPPGKGLEWIGYISYDHTNNYKPSLKDRVTISRDTSKNQFSLKLSSVTAADTAVYYCARYGRVFFDYWGQGTLVTVSS VL: DIVMTQSPLSLPVTPGEPASISCRSSQSIVHSNGNTYLQWYLQKPGQSPQLLIYKVSNRLYGVPDRFSGSGSGTDFTLKISRVEAEDVGVYYCFQGSHVPWTFGQGTKVEIK | 1.22 nM | 0.000118 s⁻¹ | 97000 M⁻¹ s⁻¹ | 1.14 nM | 0.00011 s⁻¹ | 96000 M⁻¹ s⁻¹ |
| VRDN-02018 (antibody, V domains shown) VH: QVQLQESGPGLVKPSETLSLTCTVSGYSITGGYLWNWIRQPPGKGLEWIGYISYDGHNNYKPSLKDRVTISRDTSKNQFSLKLSSVTAADTAVYYCARYGRVFFDYWGQGTLVTVSS VL: DIVMTQSPLSLPVTPGEPASISCRSSQSIVHSNGNTYLQWYLQKPGQSPQLLIYKVSNRLYGVPDRFSGSGSGTDFTLKISRVEAEDVGVYYCFQGSHVPWTFGQGTKVEIK | 0.734 nM | 7.79e-05 s⁻¹ | 106000 M⁻¹ s⁻¹ | 1.26 nM | 0.000108 s⁻¹ | 85400 M⁻¹ s⁻¹ |
| VRDN-02019 (antibody, V domains shown) VH: QVQLQESGPGLVKPSETLSLTCTVSGYSITGGYLWNWIRQPPGKGLEWIGYISYDGTHNYKPSLKDRVTISRDTSKNQFSLKLSSVTAADTAVYYCARYGRVFFDYWGQGTLVTVSS VL: DIVMTQSPLSLPVTPGEPASISCRSSQSIVHSNGNTYLQWYLQKPGQSPQLLIYKVSNRLYGVPDRFSGSGSGTDFTLKISRVEAEDVGVYYCFQGSHVPWTFGQGTKVEIK | 0.549 nM | 5.53e-05 s⁻¹ | 101000 M⁻¹ s⁻¹ | 1.18 nM | 0.000101 s⁻¹ | 85800 M⁻¹ s⁻¹ |
| VRDN-02020 (antibody, V domains shown) VH: QVQLQESGPGLVKPSETLSLTCTVSGYSITGGYLWNWIRQPPGKGLEWIGYISYDGTNHYKPSLKDRVTISRDTSKNQFSLKLSSVTAADTAVYYCARYGRVFFDYWGQGTLVTVSS VL: DIVMTQSPLSLPVTPGEPASISCRSSQSIVHSNGNTYLQWYLQKPGQSPQLLIYKVSNRLYGVPDRFSGSGSGTDFTLKISRVEAEDVGVYYCFQGSHVPWTFGQGTKVEIK | 0.544 nM | 5.16e-05 s⁻¹ | 94800 M⁻¹ s⁻¹ | 1.03 nM | 9.56e-05 s⁻¹ | 93200 M⁻¹ s⁻¹ |
| VRDN-02021 (antibody, V domains shown) VH: QVQLQESGPGLVKPSETLSLTCTVSGYSITGGYLWNWIRQPPGKGLEWIGYISYDGTNNYKPSLKDRVTISRDTSKNQFSLKLSSVTAADTAVYYCARHGRVFFDYWGQGTLVTVSS VL: DIVMTQSPLSLPVTPGEPASISCRSSQSIVHSNGNTYLQWYLQKPGQSPQLLIYKVSNRLYGVPDRFSGSGSGTDFTLKISRVEAEDVGVYYCFQGSHVPWTFGQGTKVEIK | 0.868 nM | 5.84e-05 s⁻¹ | 67300 M⁻¹ s⁻¹ | 1.38 nM | 0.000137 s⁻¹ | 99200 M⁻¹ s⁻¹ |
| VRDN-02002 (antibody, V domains shown) VH: QVQLQESGPGLVKPSETLSLTCTVSGHSITGGYLWNWIRQPPGKGLEWIGYISYDGTNNYKPSLKDRVTISRDTSKNQFSLKLSSVTAADTAVYYCARYGRVFFDYWGQGTLVTVSS VL: DIVMTQSPLSLPVTPGEPASISCRSSQSIVHSNGNTYLQWYLQKPGQSPQLLIYKVSNRLYGVPDRFSGSGSGTDFTLKISRVEAEDVGVYYCFQGSHVPWTFGQGTKVEIK | 0.992 nM | 0.000104 s⁻¹ | 105000 M⁻¹ s⁻¹ | 1.11 nM | 9.22e-05 s⁻¹ | 83000 M⁻¹ s⁻¹ |
